Assay results as given in patent publication US20180327506A1 (AbbVie / Abbott, published 2018).
Where two headings read alike, the source gives them in different places.

Assays:
[1] = molecular target: T1, full-length mature cynomolgus EMR2 (residues Q24-N816) with N-terminal aspartic acid/lysine epitope tag, … (cynomolgus monkey (Macaca fascicularis), UniProt A0A2K5WL23 21-816); assay: flow cytometry on transduced HEK293T; 293 naive MFI 326
T1 construct: whole, on cells; also called cEMR2; cEMR2-NFlag
T1 sequence: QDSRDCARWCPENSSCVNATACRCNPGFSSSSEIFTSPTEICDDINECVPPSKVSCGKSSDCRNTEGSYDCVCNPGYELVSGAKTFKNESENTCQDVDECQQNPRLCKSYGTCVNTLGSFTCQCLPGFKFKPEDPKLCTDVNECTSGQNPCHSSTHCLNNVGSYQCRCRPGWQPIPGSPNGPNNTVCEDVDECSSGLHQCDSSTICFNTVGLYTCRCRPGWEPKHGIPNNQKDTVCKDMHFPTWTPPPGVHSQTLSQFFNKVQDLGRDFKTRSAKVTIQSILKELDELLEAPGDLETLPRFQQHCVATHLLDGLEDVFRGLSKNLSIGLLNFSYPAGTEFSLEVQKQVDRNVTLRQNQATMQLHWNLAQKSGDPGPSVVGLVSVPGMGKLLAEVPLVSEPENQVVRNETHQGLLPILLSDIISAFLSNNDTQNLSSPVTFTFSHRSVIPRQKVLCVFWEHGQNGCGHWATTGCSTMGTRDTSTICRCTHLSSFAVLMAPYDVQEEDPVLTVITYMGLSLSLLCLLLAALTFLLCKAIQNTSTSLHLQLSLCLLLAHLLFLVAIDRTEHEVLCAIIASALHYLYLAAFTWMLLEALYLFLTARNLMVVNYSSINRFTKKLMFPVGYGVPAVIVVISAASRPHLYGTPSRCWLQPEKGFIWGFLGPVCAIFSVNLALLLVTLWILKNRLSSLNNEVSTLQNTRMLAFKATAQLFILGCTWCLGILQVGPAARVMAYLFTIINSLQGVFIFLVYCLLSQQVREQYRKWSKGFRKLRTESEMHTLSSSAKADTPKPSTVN
Protocol: (§1) The exemplary antibodies were also tested using flow cytometry to determine their ability to associate with hEMR2, cEMR2 and CD97 expressed on the surface of cells.

[2] = molecular target: T2, full-length mature human CD97 (residues Q21-I845) with N-terminal aspartic acid/lysine epitope tag, … (human, UniProt P48960 21-835); assay: as above
T2 construct: whole, on cells; also called hCD97; hCD97-NFlag
T2 sequence (looked up): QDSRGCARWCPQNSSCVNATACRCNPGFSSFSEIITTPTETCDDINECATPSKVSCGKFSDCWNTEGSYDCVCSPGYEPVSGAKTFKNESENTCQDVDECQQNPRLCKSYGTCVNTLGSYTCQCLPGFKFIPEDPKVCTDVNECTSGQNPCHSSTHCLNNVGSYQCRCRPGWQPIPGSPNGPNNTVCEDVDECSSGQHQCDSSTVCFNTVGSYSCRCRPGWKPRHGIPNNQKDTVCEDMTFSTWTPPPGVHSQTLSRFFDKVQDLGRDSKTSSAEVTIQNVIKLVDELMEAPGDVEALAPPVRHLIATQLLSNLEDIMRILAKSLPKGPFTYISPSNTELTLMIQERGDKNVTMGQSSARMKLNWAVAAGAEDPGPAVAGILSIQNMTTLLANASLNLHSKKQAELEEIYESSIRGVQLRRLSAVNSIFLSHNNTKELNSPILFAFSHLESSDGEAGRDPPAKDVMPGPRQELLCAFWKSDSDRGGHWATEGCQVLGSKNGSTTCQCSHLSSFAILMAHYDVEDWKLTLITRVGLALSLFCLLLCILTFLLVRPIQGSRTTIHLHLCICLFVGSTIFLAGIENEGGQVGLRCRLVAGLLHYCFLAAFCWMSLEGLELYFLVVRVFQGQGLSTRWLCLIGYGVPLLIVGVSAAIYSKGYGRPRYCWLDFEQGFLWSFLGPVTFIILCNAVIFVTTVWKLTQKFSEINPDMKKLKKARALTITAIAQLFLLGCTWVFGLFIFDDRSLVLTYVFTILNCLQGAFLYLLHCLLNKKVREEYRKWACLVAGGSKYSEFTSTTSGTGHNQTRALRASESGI
Protocol: as §1

[3] = molecular target: T3, full-length mature human EMR2 (residues Q24-N823) with N-terminal aspartic acid/lysine epitope tag, … (human, UniProt Q9UHX3 24-823); assay: as above
T3 construct: Built from NM_013447; The IgK signal peptide is not part of the mature protein; also called hEMR2; hEMR2-NFlag
T3 sequence: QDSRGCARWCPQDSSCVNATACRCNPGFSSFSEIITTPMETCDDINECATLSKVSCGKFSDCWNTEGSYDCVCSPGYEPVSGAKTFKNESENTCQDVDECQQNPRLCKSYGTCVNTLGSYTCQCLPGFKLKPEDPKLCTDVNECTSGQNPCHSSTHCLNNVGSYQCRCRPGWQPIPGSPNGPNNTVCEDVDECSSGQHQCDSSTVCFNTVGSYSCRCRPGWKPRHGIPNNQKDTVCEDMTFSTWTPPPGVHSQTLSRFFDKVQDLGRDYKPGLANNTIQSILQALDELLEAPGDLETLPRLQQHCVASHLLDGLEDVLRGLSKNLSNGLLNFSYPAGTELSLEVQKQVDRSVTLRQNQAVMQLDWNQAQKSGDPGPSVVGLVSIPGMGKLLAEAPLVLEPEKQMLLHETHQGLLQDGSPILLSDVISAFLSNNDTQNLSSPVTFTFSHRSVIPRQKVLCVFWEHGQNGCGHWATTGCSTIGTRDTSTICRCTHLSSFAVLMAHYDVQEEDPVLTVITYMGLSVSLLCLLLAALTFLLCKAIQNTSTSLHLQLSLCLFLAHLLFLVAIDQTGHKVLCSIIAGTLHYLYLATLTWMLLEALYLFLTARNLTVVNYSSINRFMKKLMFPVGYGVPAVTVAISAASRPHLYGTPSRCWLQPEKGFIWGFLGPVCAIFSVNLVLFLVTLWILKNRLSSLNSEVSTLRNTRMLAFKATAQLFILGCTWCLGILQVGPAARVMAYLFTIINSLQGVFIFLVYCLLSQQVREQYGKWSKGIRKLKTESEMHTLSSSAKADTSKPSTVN
Protocol: as §1

[4] = molecular target: T1, full-length mature cynomolgus EMR2 …; assay: cell-based or functional assay
[5] = molecular target: T2, full-length mature human CD97 (residues …); assay: cell-based or functional assay
[6] = molecular target: T3, full-length mature human EMR2 (residues …); assay: cell-based or functional assay
[7] = molecular target: T2, full-length mature human CD97 (residues …); assay: cell-based or functional assay; remark: listed apart in the source
[8] = molecular target: T3, full-length mature human EMR2 (residues …); assay: cell-based or functional assay; remark: listed apart in the source
[9] = molecular target: T1, full-length mature cynomolgus EMR2 …; assay: flow cytometry on transduced HEK293T; 293 naive MFI 97.8
Protocol: as §1

[10] = molecular target: T2, full-length mature human CD97 (residues …); assay: as above
Protocol: as §1

[11] = molecular target: T3, full-length mature human EMR2 (residues …); assay: as above
Protocol: as §1

[12] = molecular target: T1, full-length mature cynomolgus EMR2 …; assay: flow cytometry on transduced HEK293T; 293 naive MFI 97.1
Protocol: as §1

[13] = molecular target: T2, full-length mature human CD97 (residues …); assay: as above
Protocol: as §1

[14] = molecular target: T3, full-length mature human EMR2 (residues …); assay: as above
Protocol: as §1

[15] = molecular target: T1, full-length mature cynomolgus EMR2 …; assay: flow cytometry on transduced HEK293T; 293 naive MFI 99.5
Protocol: as §1

[16] = molecular target: T2, full-length mature human CD97 (residues …); assay: as above
Protocol: as §1

[17] = molecular target: T3, full-length mature human EMR2 (residues …); assay: as above
Protocol: as §1

B1: SC93.252 (antibody, IgG2a, V domains shown)
VH: QVQLQQSDAELVKPGASVKISCKVSGFSFTDHTIHWMRQRPEQGLEWIGYIYPTDGNTRYNEKFKGKASLTADKSSTTAYMQLSSLTSEDSAVYFCAKRGYYWYFDVWGTGTTVTVSS
VL: DIQMTQASSYLSVSLGGRVTITCKASDHINNWLAWYQQKPGNAPRLLISHATNLETGFPSRFSGSGSGKDYTLSITSLQTEDVATYYCQQYWNIPYTFGGGTKLEIE
notes: murine, IgG2a
- FC MFI [1]: 45200
- FC MFI [2]: 43800
- FC MFI [3]: 40500
- % live, FAB-saporin killing assay [4]: 9.42%
- % live, FAB-saporin killing assay [5]: 9.09%
- % live, FAB-saporin killing assay [6]: 10.8%

B2: SC93.216 (antibody, IgG1, V domains shown)
VH: EVQLVESGGGLVKPGGSLKLSCAASGFTFSSYGMSWVRQTPEKRLEWVAAIHSNGDITYYPDTVKGRFTISRDNAKNTLYLQMSSLTSEDTALYYCANLAYWGQGTLVTVSA
VL: EIQMTQSPSSMSASLGDRITITCQATQDIVKNLNWYQQKPGKSPSSLIYYATELAEGVPSRFSGSGSGSDYSLTISNLESEDFADYYCLQFYEFPLTFGAGTKLELK
- % live, FAB-saporin killing assay [7]: 107%
- % live, FAB-saporin killing assay [8]: 102%

B3: SC93.239 (antibody, V domains shown)
VH: LVQLQQSGVELARPGASVKLSCKASGYIFTSYGISWVKQRTGQGLEWIGNIYPRTGNTYYNEKFKDKATLTADKSSNTAYMELRSLTSEDSAVYFCARGTHYDPLDYWGQGTTLTVSS
VL: ENVLTQSPAIMSASPGEKVTMTCRASSSVSSSDLHWYQQKSGASPKLWIYSTSNLASGVPARFSGSGSGASCSLTISSVEAEDAATYYCHQYSGYPWTFGGGTKLEIK
notes: Murine hybridoma antibody with a kappa light chain; also called clone SC93.239; SC93.239 (Bin A)
- % live, FAB-saporin killing assay [4]: 16.7%
- % live, FAB-saporin killing assay [5]: 106%
- % live, FAB-saporin killing assay [6]: 16.8%
- FC MFI [9]: 76700
- FC MFI [10]: 925
- FC MFI [11]: 71100

B4: SC93.243 (antibody, IgG2b, V domains shown)
VH: QVQLQQSGAELMKPGASVKISCKATGYTFSSYWIEWVKQRPGHGLEWIGEILPGSGRTNYNERLKGKATFTADTSSNTAYMQLSSLTSEDSAVYYCARPYFYGSNFDFWGQGTTLTVSS
VL: DIVMTQSHKFMSTSVGDRVSITCKASQDVGTAVAWYQQKPGQSPKLLIYWASTRHTGVPDRFTGSGSGTDFTLTISNVQSEDLADYFCQQYSSYHTFGGGTKLEIK
notes: murine, IgG2b
- % live, FAB-saporin killing assay [4]: 20.8%
- % live, FAB-saporin killing assay [5]: 91.9%
- % live, FAB-saporin killing assay [6]: 68.7%
- FC MFI [12]: 65800
- FC MFI [13]: 8140
- FC MFI [14]: 42700

B5: SC93.15 (antibody, IgG1, V domains shown)
VH: EVQLQQSGPELVKPGASVKISCKGSGYTFTDYFMNWVKLSHGKSLEWIGEINPNNGGTNYNQKFKGKATLTVDKSSSIAYMELRSLTSEDSAVYYCARPGTNYWGPGTTLTVSS
VL: DIVMTQSHKFMSTSVGDRVSITCKASQNVGTSVAWYQQKPGHSPKLLIYWASTRHTGVPDRFTGSGSGTDFSLTISSVQSEDLTDYFCQQYSSYPLTFGGGTKLEIK
- % live, FAB-saporin killing assay [7]: 99.5%
- % live, FAB-saporin killing assay [8]: 15%

B6: SC93.253 (antibody, V domains shown)
VH: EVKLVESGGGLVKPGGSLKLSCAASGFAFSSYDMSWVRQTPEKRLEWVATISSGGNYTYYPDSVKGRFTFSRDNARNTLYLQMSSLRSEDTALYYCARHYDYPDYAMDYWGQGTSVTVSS
VL: DIVMTQSQKFMSTSVGDRIIITCKASQNVRTTVDWYQQKPGQSPKVLISLASNRHTGVPDRFTGSGSGTDFTLTISNVQSEDLADYFCLQHRNYPLTFGGGTKLEIK
notes: Murine hybridoma antibody with a kappa light chain
- % live, FAB-saporin killing assay [4]: 11.1%
- % live, FAB-saporin killing assay [5]: 92.2%
- % live, FAB-saporin killing assay [6]: 13.4%
- FC MFI [15]: 48700
- FC MFI [16]: 328
- FC MFI [17]: 38300
